Test results taken from IntAct's records for PubMed 17435768.

B1: Heterogeneous nuclear ribonucleoprotein A1 (Homo sapiens), P09651-2 (parent)
chain: MSKSESPKEPEQLRKLFIGGLSFETTDESLRSHFEQWGTLTDCVVMRDPNTKRSRGFGFVTYATVEEVDAAMNARPHKVDGRVVEPKRAVSREDSQRPGAHLTVKKIFVGGIKEDTEEHHLRDYFEQYGKIEVIEIMTDRGSGKKRGFAFVTFDDHDSVDKIVIQKYHTVNGHNCEVRKALSKQEMASASSSQRGRSGSGNFGGGRGGGFGGNDNFGRGGNFSGRGGFGGSRGGGGYGGSGDGYNGFGNDGSNFGGGGSYNDFGNYNNQSSNFGPMKGGNFGGRSSGPYGGGGQYFAKPRNQGGYGGSSSSSSYGSGRRF
B2: Heterogeneous nuclear ribonucleoprotein M (Homo sapiens), P52272 (parent)
chain: MAAGVEAAAEVAATEIKMEEESGAPGVPSGNGAPGPKGEGERPAQNEKRKEKNIKRGGNRFEPYANPTKRYRAFITNIPFDVKWQSLKDLVKEKVGEVTYVELLMDAEGKSRGCAVVEFKMEESMKKAAEVLNKHSLSGRPLKVKEDPDGEHARRAMQKVMATTGGMGMGPGGPGMITIPPSILNNPNIPNEIIHALQAGRLGSTVFVANLDYKVGWKKLKEVFSMAGVVVRADILEDKDGKSRGIGTVTFEQSIEAVQAISMFNGQLLFDRPMHVKMDERALPKGDFFPPERPQQLPHGLGGIGMGLGPGGQPIDANHLNKGIGMGNIGPAGMGMEGIGFGINKMGGMEGPFGGGMENMGRFGSGMNMGRINEILSNALKRGEIIAKQGGGGGGGSVPGIERMGPGIDRLGGAGMERMGAGLGHGMDRVGSEIERMGLVMDRMGSVERMGSGIERMGPLGLDHMASSIERMGQTMERIGSGVERMGAGMGFGLERMAAPIDRVGQTIERMGSGVERMGPAIERMGLSMERMVPAGMGAGLERMGPVMDRMATGLERMGANNLERMGLERMGANSLERMGLERMGANSLERMGPAMGPALGAGIERMGLAMGGGGGASFDRAIEMERGNFGGSFAGSFGGAGGHAPGVARKACQIFVRNLPFDFTWKMLKDKFNECGHVLYADIKMENGKSKGCGVVKFESPEVAERACRMMNGMKLSGREIDVRIDRNA

Variants of: B1
Conditions: with tnpo1_human TNPO1, Q92973
tnpo1_human TNPO1, Q92973, sequence (Q92973 whole entry): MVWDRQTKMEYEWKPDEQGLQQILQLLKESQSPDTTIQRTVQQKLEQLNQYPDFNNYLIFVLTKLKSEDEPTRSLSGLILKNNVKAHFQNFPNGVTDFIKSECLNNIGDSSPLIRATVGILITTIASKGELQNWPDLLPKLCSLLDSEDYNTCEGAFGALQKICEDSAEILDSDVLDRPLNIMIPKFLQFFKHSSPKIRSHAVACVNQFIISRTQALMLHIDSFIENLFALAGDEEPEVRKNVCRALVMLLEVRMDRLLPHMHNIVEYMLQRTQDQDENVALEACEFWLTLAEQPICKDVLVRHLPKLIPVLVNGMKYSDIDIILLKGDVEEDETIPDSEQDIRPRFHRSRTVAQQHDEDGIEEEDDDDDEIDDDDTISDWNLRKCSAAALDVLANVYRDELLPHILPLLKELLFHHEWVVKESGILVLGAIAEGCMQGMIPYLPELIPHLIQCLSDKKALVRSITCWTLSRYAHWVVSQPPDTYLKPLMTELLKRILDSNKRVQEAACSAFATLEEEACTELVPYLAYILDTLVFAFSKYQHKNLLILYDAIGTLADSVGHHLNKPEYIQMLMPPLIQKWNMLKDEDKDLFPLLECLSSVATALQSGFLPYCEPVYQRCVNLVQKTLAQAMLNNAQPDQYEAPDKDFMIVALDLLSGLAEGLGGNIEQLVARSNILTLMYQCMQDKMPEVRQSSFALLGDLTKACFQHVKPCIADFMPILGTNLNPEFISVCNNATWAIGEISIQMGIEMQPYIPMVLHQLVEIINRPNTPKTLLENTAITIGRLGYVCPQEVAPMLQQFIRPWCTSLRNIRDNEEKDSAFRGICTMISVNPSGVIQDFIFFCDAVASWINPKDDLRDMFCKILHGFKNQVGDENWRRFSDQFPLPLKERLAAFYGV

Variant	effect of a mutation on the interaction
G274A	decreasing interaction

Variants of: B2
Conditions: with tnpo1_human TNPO1, Q92973

Variant	effect of a mutation on the interaction
P63A;Y64A	decreasing interaction strength
